From patent publication US5874218, “Method for detecting a target compound in a substance using a nucleic acid ligand” (NeXstar Pharmaceuticals, Inc.)

What was measured:
[1] = target: hCG (chorionic gonadotropin) (Homo sapiens, UniProt P01215;P0DN86 P01215:25-116,P0DN86:21-165); assay: dot blot of hCG in urine; detectable at 1.9 nM, saturates above 500 nM; higher signal in low salt buffer with 2 mM MgCl2; conditions: label: radiolabeled
Description: Test urine (obtained from pregnant individuals) and control urine (obtained from males) samples were pre-filtered through 0.2 mm polysulfone filters (Gelman Sciences) to remove particulate matter. hCG suspended in control urine to various concentrations (300 ml) was blotted onto pre-wetted nitrocellulose filters (from BioRad) under vacuum. Radiolabeled nucleic acid ligand to hCG, H-42 RNA (SEQ ID NO: 4)(100 ml of 1 pmole/ml) was then added to blots and filtered. Blots were immediately washed two times with 300 ml of TEM buffer. The blots were dried and analyzed by autoradiography and phosphorimager (Fuji).
In preliminary studies, anti-hCG antibodies were first applied to nitrocellulose blots to capture hCG and subsequently the radiolabeled RNA was used to detect the hormone. Such anti-hCG antibodies were required only if hCG was suspended in a buffer. However, if hCG in urine was used there was no significant difference in the signal in the presence and absence of antibodies. This may be due to the presence of other proteins in urine that serve as nonspecific carriers, effectively retaining hCG on the membrane. […] The signal saturates at high hCG concentration (>500 nM). Even at 1.9 nM hCG concentration, signal above background level was detected. Compared to control male urine (blots 1–3), the urine from a pregnant […] […]

[2] = target: hTSH (thyroid stimulating hormone) (Homo sapiens, UniProt P01215;P01222 P01215:25-116,P01222:21-132); assay: dot blot on nitrocellulose, 50-800 nM hTSH, TEM buffer with 0.1% hSA, 0.5 M urea wash; conditions: tags: Becton Dickinson, Mr 27,700, 9 IU/mg; label: internally radiolabeled
Sequence of hTSH (thyroid stimulating hormone) (P01215 25-116, chain 1 of 2): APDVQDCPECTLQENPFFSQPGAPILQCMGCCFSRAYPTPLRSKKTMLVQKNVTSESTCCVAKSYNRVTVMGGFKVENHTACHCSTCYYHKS
Sequence of hTSH (thyroid stimulating hormone) (P01222 21-132, chain 2 of 2): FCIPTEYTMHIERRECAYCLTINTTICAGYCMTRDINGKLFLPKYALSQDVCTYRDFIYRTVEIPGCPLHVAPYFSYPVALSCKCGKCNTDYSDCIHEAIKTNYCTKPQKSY
Description: hTSH was suspended in TEM buffer (300 ml) containing 0.1% hSA (w/v) and applied to pre-wetted nitrocellulose filters (0.45 micron; BioRad) under suction. Gel-purified, internally labeled nucleic acid ligand T-15 (SEQ ID NO: 3) was then applied to the blots in 50 ml of TEM buffer (0.2 pmoles/ml) and filtered gently. Filters were immediately washed three times with 300 ml of 0.5M urea in the same buffer. The blots were dried and analyzed with a phosphorimager and by autoradiography.
The results wherein different concentrations of hTSH (from 800 nM (177 mIU/ml) to 50 nM (11 mIU/ml)) blotted on a nitrocellulose membrane were detected by radiolabeled nucleic acid ligand T-15 are shown in FIG. 4. Very low levels of background binding of RNA to nitrocellulose filters in the absence of hTSH (but with hSA in the buffer) was accomplished by washing blots with 0.5M urea in the binding buffer. This step eliminated most nonspecific binding, yet leaving specific binding of ligand T-15 to hTSH largely unaffected. […] However, with the affinity-selected radiolabeled ligand T-15, the radioactive signal on the blot correlated with the concentration of hTSH used. There is a linear relationship between the radioactive signal and the amount of hTSH up to 100 mIU/ml; the signal saturates above this concentration.

Sequence of hCG (chorionic gonadotropin) (P01215 25-116, chain 1 of 2, other chains not shown): as the sequence (P01215 25-116, chain 1 of 2) above

B1: H-42 (ssRNA)
RNA: GGGAGGACGAUGCGGACAAGGGCCUGAGUGUGGAGGGCACGUGGAGGGGACUGGCCAGACGACUCGCCCGA
modifications: 2'-NH2 pyrimidines (library chemistry)
- binding result [1]: binds

B2: T-15 (ssRNA)
RNA: GGGAGGACGAUGCGGAUGUUGGCAGCAGGGUCCGACGGCGUAACCUUGCCAGCUGCAGACGACUCGCCCGA
modifications: 2'-NH2 on all C and U
- binding result [2]: binds
